# Measurements from a protein production outcome set (Wang et al. 2014).
# Test: label from the status in PepcDB records
row,Sequence,protein production
1,MRIGIMGLGRIGAFHAETLSGLPAVTSLVVTDPFTDAAKSAAERFGAEVADSPEAVLAAGVDGVVVAAATDAHPGLVLAAVEAGVPVFCEKPVARTMREGVAVLEAVRDAGVEIQIGYNRRFDAGFVAARAAVASGELGALHTVRSTTLDPAPPPPAYVAASGGIFRDCSVHDFDIIRWVTGREVVEVYATGGNRGADYIAAAGDADTTAAVLTLDDGTLAVVSNSRHNARGHDVRMELHGFRDSIAVGLEDRLPLRSVEPGTSFPAGTPHDFFMDRFAAAYRAELTAFTEVVAGRRPSPCTVADALEAGWIAEACTLSLHSHRPVTVEEVRRQS,failed
2,MEWSLPVDLQEEILSRVPAKSLARWKSTPKQWKGPISIEFLHLLRSTLKFPLLNLHLKSKSIYVTSFTAMVFCYAPPSTKDSRFGIHVQGKPSGFLADEQNKVVVCCKWRSDSINTIYFVGENKHVQVDQRRGDLTLGQSCSFLMNYVPSFVQIQQGTLLAPRT,failed
3,MRRSFYHYLMTLKGPAKDSETDFANEAAKDIQFPKQTEDYHELSSYLEMNADYLSNMDIFDELWEKYLENNKLEHHHHHH,not failed
4,MHKDELLELHEQMVTIMEYFRDDMDSVDPDLFDAYQELDVRPSDVHKSKSEHKHAVFVLGNSLATAMSEDEFSDAGRVSKRMKELAEDAERKLLEHHHHHH,not failed
5,MDLFLAMRVYVKVVETGSLTAAAQACSISTTMVGNHLRALEQRLGVSLLQRTTRRQRLTEFGTAYYQRCLEVLGLVAQSEQLAEQAQGEPTGTLRITAPLTFGSELLAPALVGFSQRFPDVKLDLVLTNQRLDMIDNGFDVAIRLGNLAQSSPLIARPLQDYTLTICAAPDYLARHSAPTRPEDLRAHNCLAFAYPAGDEWRTAGTQWRMTGPEGEVLVDVDGSMVANTSAGLYQAARAGMGVVMLPDALVQRDLQEGRLVALLPDYHLPRRPMNLLYVQDRYRLPKLRSFVEFATALWGR,failed
6,MSSSSSVPAYLGDEDLTQETRALISSLPKEKGWLVSEIYEFQGLWHTQAILQGILICQKRFEAKDSDIILVTNPKSGTTWLKALVFALLNRHKFPVSSSGNHPLLVTNPHLLVPFLEGVYYESPDFDFSSLPSPRLMNTHISHLSLPESVKSSSCKIVYCCRNPKDMFVSLWHFGKKLAPEETADYPIEKAVEAFCEGKFIGGPFWDHILEYWYASRENPNKVLFVTYEELKKQTEVEMKRIAEFLECGFIEEEEVREIVKLCSFESLSNLEVNKEGKLPNGIETKTFFRKGEIGGWRDTLSESLAEEIDRTIEEKFKGSGLKFSS,not failed
7,MGTIESYLTNSYNYIIFNFKKLCIGGLMSAIVGAMSGVTTAFIDLFMERANYDIMHIIMSFLIYFGIIFIIGLIVSAIIGGYNVRIMKTTVEGLNVAPDWNNITDLLYRGILYIVGLVLLNIIFYFIPAILFVFGIFSLYISKIIGAFLIIISILIFIISVISLWLYSKLAEVNYSVKGFYGFFEFKEIFKMIGIRYIILVIIIAIINFIISLIVVLPLNIIDIFISYSALANSILTIIYISIKGISYALSTFVDFYLGVFSIRAVALYYKDRKGIT,failed
8,KDPLLNSLIYVSRYYGLANSPEALVNGLPLSDGKLTPFLLPRAAERAGLVAKENRAELEKISSLILPAILVLKGGDSCVLNSINMETREAEVTTLESGMVPISIPLEDLLEQYTGRYFLVKKQFR,failed
9,MNIQSILSDKIKQAMILAGADQSCDALIRQSGKPQFGDYQANGIMAAAKKLGLNPREFAQKVLDNLQLSDIAEKLEIAGPGFINIFLNPTWLTTEISAALSHK,failed
10,MKRLSLLAATAAFLLASPALAESPFWPVQPKNGPVAAELRGAWKSRGYGWIVQFGPDGPQLFHTAGGACYPDPRREPDPDGVLALWRAEGPGVISLTGDPVGTRYQFDRLPNLPTDCISAGGWTPDRIVAFAADTFAELYPRSAERKLDWPARKAKALTQVGPNATDDQLWLAMAGLLSGLDDPHVELHGMVQGARRDLEPGESPTLMRVRAADPSGDERGWLQAYREGILTGLLQGKGRQAANNRIFWGRVDDVGYLNVLTMGAFARNAAPDDPRPLDAVLDEALSAFVGAKAVVVDVSNNRGGYDIISRRIAARFTAQPRVAYAKVPVGAKAPPQVIKVEPSGAVGFTGPVYVVTSDITVSAGETFTLMMKALPNVTLVGGTTRGAFSDQLPKPLPNGWTLALPAELYRTADGRDLEGRGLAPTVPMAVFPDSDLMGGHAKALSSLFATIREGAAAGATR,failed
11,SHRSAAAFVDAERELFVRDQPIGPDDRVLAGLSVAFDASCEEMWLAWGHGACLVPAPRSLVRTGLDLGPWLISRDISIVSTVPTLAGMWPAEALDNVRLLILGGEACSAELVARVASSRREVWNTYGPTEATVVTCAARLEAGQPVAIGLPLAG,failed
12,MTSPSSAFPDGHGARLDAQSIRFERLLPGPIERVWAWLADADKRARWLAGGELPRQPGQTFELHFNHAALTAETAPARYAQYDRPIVARHTLLRCEPPRVLALTWGGGAGEAPSEVLFELSEAGEQVRLVLTHTRLADRAAMLDVAGGWHAHLAVLAGKLAGQAPPPFWTTLAQAEQDYEQRLLEHHHHHH,not failed
13,METSSSSPVKPRRKDKDEDKFRIGATLAFIVVIIGIGVPMWWRTTTVYRVNLPSTEILSLSKIPIKTAVQVAIYTQQTSRGQLLIAELQNAFSDNEIWSVEFKQLSPTPMTQEAHTPAALEKLLLENHVQSVGDFMFIEWPKLQEELLLTTERSALMRSDTPSNKIAQLLHAKILQTYRINQILSTDERMGAKSEAPQPAYDVIVSVLNPKPRLTHAKWNIAMAVKTYIEPWLAKVSGVSNYTVRSQWKYRVAIEADLKQVRDQSKLGRHYALQETALPHLLTSIAQNLSASTTDKPAINLVVYIPPCHIAPLHIYNSKDQRLTRNDVDAFISPPWGGFIIANPPEHVCLAAMSDQEAVPYHVSTTDNMQVMLDQLHKLLDISSELQMEGVKVVDIEQLEPRRWEYEAYLRRSAIRHISTASSTLQSLIKLLDQISYIVIDDEVGAAITNSYADILAAKAALLEHRLADASVLAKRAFVASERGFFDASLLAQLYFPDEQKYAIYIPLFLPIMVPVLSSFNMLRGVLQARRKEKQS,failed
14,MGEDRRSLRVDYDDNFLRNNICSLKVSFIKQQGGAEGVKRLYADLGLALVALIWGSTFPVVKIALDSMSPFAFNTVRFFIACLFFLPFLKGWDFKDGFKIGIASFLGYTFQTVGLDYTTATNAGFITSTYVVLAPIISWLVYKDVFDKRDVSGVLLAFVGFYFLSGYSGFNIGDILMLFCALFFGAEIAMISHYSRLSNPTMLAFWQSFAIFILSAPFAVFTTTKFEINTTVILCLLITAFFATFVAKMLQNWLQSYTKSSDAAVILSLEGVFAHLFSVAVLAEILTPVQYFGAFLILLAVIIVSLRV,failed
15,AAKQDVKVFSEDGTSKVVEILADMTARDLCQLLVYKSHCVDDNSWTLVEHHPHLGLERCLEDHELVVQVESTMASESKFLFRKNYAKYEFFK,failed
16,MWNATPSEEPGFNLTLADLDWDASPGNDSLGDELLQLFPAPLLAGVTATCVALFVVGIAGNLLTMLVVSRFRELRTTTNLYLSSMAFSDLLIFLCMPLDLVRLWQYRPWNFGDLLCKLFQFVSESCTYATVLTITALSVERYFAICFPLRAKVVVTKGRVKLVIFVIWAVAFCSAGPIFVLVGVEHENGTDPWDTNECRPTEFAVRSGLLTVMVWVSSIFFFLPVFCLTVLYSLIGRKLWRRRRGDAVVGASLRDQNHKQTVKMLAVVVFAFILCWLPFHVGRYLFSKSFEPGSLEIAQISQYCNLVSFVLFYLSAAINPILYNIMSKKYRVAVFRLLGFEPFSQRKLSTLKDESSRAWTESSINT,failed
17,MDIHIKPINTFAHAEMDALYTMIFHFYEEYDPTHVITKESINDTIIHLTNHPESGSIQFVYDAENALVGYVILIKYWSNEYQGYLLFIDELYIVPDKRSLGYGRTCITLIEKTFHDIQALALEVSPKNTRAQAFYLQLGFLPNKNKTFIKIKY,failed
18,METNKNFAVIGLGEFGSRICEVLVDGGASVVAFDHDIQAVERIKKIVPAAMLVETTNEEALLKAPLDDVEVAIVAIGNNIEASVLTTTLLKQRDIPYVLARAVSPLHATVLRRVGANEVLNIEISAATRIARRLISPDVMDSIAVTKDFSIREIIVPKFFIGKTVGSVALKEKFNITLIALVRMALDIDSVGNPVKQEVMHYPEDDFELREGDKLFLIGSNIKLEEFRNM,failed
19,MKGRLLQRLRQLSISNSLRGAFLTGALLTLIVSMVSLYSWHEQSSQVRYSLDEYFPRIHSAFLIEGNLNLAVDQLNEFLLAPNTTVRLQLRTQIIQHLDKIERLSQGLQLAERRQLAVILQDSRTLLAELDNALYNMFLVREKVSELSARIDWLHDDFTTELNSLVQDFTWQQGTLLDQIEANQGDAAQYLQRSREVQNEQQQVYTLARIENQIVDDLRDRLNELKSGNNDGMLVETHIRYLENLKKTADENIRALDDWPSTITLRQTIDELLEIGMVKNKMPDTMRDYVAAQKALLDASRAREATLGRFRTLLEAQLGSSHQQMQTFNQRLEQIVRVSGGLILVTTLLALLLAWGLNHYFIRSRLVKRFTALNQAVVQIGLGRTDSTIPVYGRDELGRIARLLRHTLGQLNMQRRQLEQEVAERKEIEADLRAMQDELIQTAKLAVVGQTMTTLAHEINQPLNALSMYLFTAGRAIEQGQSGQARNTLTKAEGLINRIDAIIRSLRQFTRRAELETPLYPVDLRQTFVAAWELLAMRHQSRQGALSLPTDTVWVSGDEVRIQQVLVNVLANALDACSHDAAIAVTWQTQGEALEVYIADNGPGWPGALLPSLLKPFTTSKAVGLGIGLSISVSLMAQMKGDLRLASTLTRNACVVLQFSVTDVDDVE,failed
20,MGSPNINGNTAKLVNAILDGAAEKRAEKVIYNLASLNIKGCDACFRCQKSGCCAIDDDMQELYHEIQAADTIVLGSPVYMWQMTAQTKLLIDRLTAFLKPDFSSRLDNKKLILVFSQGSPDRDAFKPYFEYTAGLLYYLGFDVLETVIAAGTDNLEVSFRPKLLENARELGRLVSTSPLTGPEFKKDEPSLTPLL,failed
21,MGSSSRQGWRSVFKDVTQKWDVMTVEEQEKELSLLEEWTERVLEEWSDMHEACMTLRERQQQSSVLEKYPPYVSKGTALYDLEMFPEAAMQFDRELKMQPHMHHPLLHLYAIFANLYGGQRERCKEHCVYVLTTSVDRLVRYFTYMALGTLYMQEGEVEEALTSYEHASKLTFHPDVMYNLGMAYFLQHQYALAIPCFMEVIKDGEEDVDALYFLGCALCESGYVEEGCAKWLEAIQLCPPEKVLLTIGAKLEWYGFHQAAVHCFEQLLQSRQLRHLAKHGIAWNLALQDEREKAIHMLKELIAVPQIREDVRLSIEFLAHCWNDGNLRQLAASIERG,failed
22,MNEYQIKFKEDCYYAENNAGKVIGELLYSKIKQGKVISINQVRVDPLFRNRGIAGKLLKKAVDDAVKNGQLIKAVCSFSKKAFLQNKNYQKYEYKEN,failed
23,MAFAPRYSSLIPCALALAASLAGTPDGARAQAPDGPKHPLEKPLAHPPAPPEKLPRVPTDRTKGLDFLFGALKAAPDETSAKHVEGRIWALWSQTTSDTTALLMARSKVAMDAKQFDVALKLLDAVVKLKPDYVEGWNRRATIYYLQNDYMHSLEDIEQVLAREPRHFGALAGLGMIMQELGDDKRALDAFRRALALNPHLDKVPDLVKTLSEKVEGRDI,failed
24,MVPRFATLGRIPKGVWVLGGVSLLMDVSSEMIHSLLPLFMATTLGASVIIIGLIEGLAEATALILKVFSGAISDYVGKRKGLALLGYGLGALSKPLFAIAPTAGVVFSARMIDRVGKGIRGAPRDALVADVTPPEIRGAAYGLRQALDTVGAFLGPLLAVLLMFIWANDFHAIFWVAVIPAVLSILLLGFGLQEPKSAIAHKRSNPLKRENLKKLSAAYWWVVAIGSIFTLARFSEAFLVLRAQQMEIPLYTIPLVMVAMNLVYSLTAYPFGKLSDSMSHSKLLQWGLLVLILADIVLALSGHWSTLLIGVALWGIHMGMTQGLLAAMVAHTAPPELRGTAFGMFNLMSGLALLLASTGAGVLWETFGAASTFYAGAIICVVTLIGMRVMPSAYRQD,not failed
